Experiments:
Assay in all cases: cell-based or functional assay
[1] = target: IL-18 polypeptide C158 (V11I, C38A, K53A, C76A, G108A, C127A) (human) (UniProt Q14116)
[2] = target: IL-18 polypeptide of SEQ ID NO: 36 (K53A) (human) (UniProt Q14116)
[3] = target: IL-18 polypeptide C157 (V11I, C38A, K53A, C76A, C127A, D132A) (human) (UniProt Q14116)
[4] = target: IL-18 polypeptide of SEQ ID NO: 6 (E6K, V11I, C38A, K53A, T63A, C68A, C76A, D98C, C127A) (human) (UniProt Q14116)
[5] = target: IL-18 polypeptide C145 (V11I, C38A, K53A, S55A, C76A, C127A) (human) (UniProt Q14116)
Sequence of IL-18 polypeptide C145 (V11I, C38A, K53A, S55A, C76A, C127A) (human) (Q14116 37-193 V47I/C74A/K89A/S91A/C112A/C163A): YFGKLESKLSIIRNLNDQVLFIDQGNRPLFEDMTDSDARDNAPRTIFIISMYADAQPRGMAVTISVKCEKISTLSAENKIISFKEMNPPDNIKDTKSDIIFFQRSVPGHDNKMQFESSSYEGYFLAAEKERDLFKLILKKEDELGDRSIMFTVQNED

[6] = target: IL-18 polypeptide of SEQ ID NO: 53 (K53A, T63A) (human) (UniProt Q14116)
Sequence of IL-18 polypeptide of SEQ ID NO: 53 (K53A, T63A) (human) (Q14116 37-193 K89A/T99A): as the sequence (Q14116 37-193 V47I/C74A/K89A/S91A/C112A/C163A) above, with I11V, A38C, A55S, T63A, A76C, A127C counted along it

[7] = target: IL-18 polypeptide C163 (V11I, C38A, C76A, Q103K, C127A) (human) (UniProt Q14116)
Sequence of IL-18 polypeptide C163 (V11I, C38A, C76A, Q103K, C127A) (human) (Q14116 37-193 V47I/C74A/C112A/Q139K/C163A): as the sequence (Q14116 37-193 V47I/C74A/K89A/S91A/C112A/C163A) above, with A53K, A55S, Q103K counted along it

[8] = target: IL-18 polypeptide of SEQ ID NO: 62 (E6K, C38A, K53A, C127A) (human) (UniProt Q14116)
Sequence of IL-18 polypeptide of SEQ ID NO: 62 (E6K, C38A, K53A, C127A) (human) (Q14116 other isoform, or with tags, fused parts or gaps C38A K53A C127A C38A K53A C127A): as the sequence (Q14116 37-193 V47I/C74A/K89A/S91A/C112A/C163A) above, with E6K, I11V, A55S, A76C counted along it

[9] = target: IL-18 polypeptide C164 (V11I, C38A, S55H, C76A, C127A) (human) (UniProt Q14116)
Sequence of IL-18 polypeptide C164 (V11I, C38A, S55H, C76A, C127A) (human) (Q14116 37-193 V47I/C74A/S91H/C112A/C163A): as the sequence (Q14116 37-193 V47I/C74A/K89A/S91A/C112A/C163A) above, with A53K, A55H counted along it

[10] = target: IL-18 polypeptide C155 (V11I, C38A, D40A, K53A, C76A, C127A) (human) (UniProt Q14116)
Sequence of IL-18 polypeptide C155 (V11I, C38A, D40A, K53A, C76A, C127A) (human) (Q14116 37-193 V47I/C74A/D76A/K89A/C112A/C163A): as the sequence (Q14116 37-193 V47I/C74A/K89A/S91A/C112A/C163A) above, with D40A, A55S counted along it

[11] = target: IL-18 polypeptide C148 (F2A, V11I, C38A, K53A, C76A, C127A) (human) (UniProt Q14116)
Sequence of IL-18 polypeptide C148 (F2A, V11I, C38A, K53A, C76A, C127A) (human) (Q14116 other isoform, or with tags, fused parts or gaps V11I C38A K53A C76A C127A V11I C38A K53A C76A C127A): as the sequence (Q14116 37-193 V47I/C74A/K89A/S91A/C112A/C163A) above, with F2A, A55S counted along it

[12] = target: IL-18 polypeptide of SEQ ID NO: 37 (S55A) (human) (UniProt Q14116)
Sequence of IL-18 polypeptide of SEQ ID NO: 37 (S55A) (human) (Q14116 37-193 S91A): as the sequence (Q14116 37-193 V47I/C74A/K89A/S91A/C112A/C163A) above, with I11V, A38C, A53K, A76C, A127C counted along it

[13] = target: IL-18 polypeptide of SEQ ID NO: 46 (E06K, K53A, S55A, M51G) (human) (UniProt Q14116)
Sequence of IL-18 polypeptide of SEQ ID NO: 46 (E06K, K53A, S55A, M51G) (human) (Q14116 37-193 E42K/M87G/K89A/S91A): as the sequence (Q14116 37-193 V47I/C74A/K89A/S91A/C112A/C163A) above, with E6K, I11V, A38C, M51G, A76C, A127C counted along it

[14] = target: IL-18 polypeptide C165 (V11I, C38A, S55R, C76A, C127A) (human) (UniProt Q14116)
Sequence of IL-18 polypeptide C165 (V11I, C38A, S55R, C76A, C127A) (human) (Q14116 37-193 V47I/C74A/S91R/C112A/C163A): as the sequence (Q14116 37-193 V47I/C74A/K89A/S91A/C112A/C163A) above, with A53K, A55R counted along it

[15] = target: IL-18 polypeptide C152 (V11I, S36A, C38A, K53A, C76A, C127A) (human) (UniProt Q14116)
Sequence of IL-18 polypeptide C152 (V11I, S36A, C38A, K53A, C76A, C127A) (human) (Q14116 37-193 V47I/S72A/C74A/K89A/C112A/C163A): as the sequence (Q14116 37-193 V47I/C74A/K89A/S91A/C112A/C163A) above, with S36A, A55S counted along it

[16] = target: IL-18 polypeptide C167 (V11I, C38A, C76A, S105I, C127A) (human) (UniProt Q14116)
Sequence of IL-18 polypeptide C167 (V11I, C38A, C76A, S105I, C127A) (human) (Q14116 37-193 V47I/C74A/C112A/S141I/C163A): as the sequence (Q14116 37-193 V47I/C74A/K89A/S91A/C112A/C163A) above, with A53K, A55S, S105I counted along it

[17] = target: IL-18 polypeptide C159 (V11I, C38A, K53A, C76A, H109A, C127A) (human) (UniProt Q14116)
Sequence of IL-18 polypeptide C159 (V11I, C38A, K53A, C76A, H109A, C127A) (human) (Q14116 37-193 V47I/C74A/K89A/C112A/H145A/C163A): as the sequence (Q14116 37-193 V47I/C74A/K89A/S91A/C112A/C163A) above, with A55S, H109A counted along it

[18] = target: IL-18 polypeptide of SEQ ID NO: 40 (E06K, S55A) (human) (UniProt Q14116)
Sequence of IL-18 polypeptide of SEQ ID NO: 40 (E06K, S55A) (human) (Q14116 37-193 E42K/S91A): as the sequence (Q14116 37-193 V47I/C74A/K89A/S91A/C112A/C163A) above, with E6K, I11V, A38C, A53K, A76C, A127C counted along it

[19] = target: IL-18 polypeptide of SEQ ID NO: 60 (E6K, C38Q, K53A) (human) (UniProt Q14116)
Sequence of IL-18 polypeptide of SEQ ID NO: 60 (E6K, C38Q, K53A) (human) (Q14116 other isoform, or with tags, fused parts or gaps C38Q K53A C38Q K53A): as the sequence (Q14116 37-193 V47I/C74A/K89A/S91A/C112A/C163A) above, with E6K, I11V, A38Q, A55S, A76C, A127C counted along it

[20] = target: IL-18 polypeptide of SEQ ID NO: 47 (C38S, C68S, C76S, C127S) (human) (UniProt Q14116)
Sequence of IL-18 polypeptide of SEQ ID NO: 47 (C38S, C68S, C76S, C127S) (human) (Q14116 37-193 C74S/C104S/C112S/C163S): as the sequence (Q14116 37-193 V47I/C74A/K89A/S91A/C112A/C163A) above, with I11V, A38S, A53K, A55S, C68S, A76S, A127S counted along it

[21] = target: IL-18 polypeptide C146, SEQ ID NO: 68 (V11I, C38A, M51G, K53A, C76A, C127A) (human) (UniProt Q14116)
Sequence of IL-18 polypeptide C146, SEQ ID NO: 68 (V11I, C38A, M51G, K53A, C76A, C127A) (human) (Q14116 37-193 V47I/C74A/M87G/K89A/C112A/C163A): as the sequence (Q14116 37-193 V47I/C74A/K89A/S91A/C112A/C163A) above, with M51G, A55S counted along it

[22] = target: IL-18 polypeptide of SEQ ID NO: 51 (T63A) (human) (UniProt Q14116)
Sequence of IL-18 polypeptide of SEQ ID NO: 51 (T63A) (human) (Q14116 37-193 T99A): as the sequence (Q14116 37-193 V47I/C74A/K89A/S91A/C112A/C163A) above, with I11V, A38C, A53K, A55S, T63A, A76C, A127C counted along it

[23] = target: IL-18 polypeptide of SEQ ID NO: 35 (Y01G, F02A, E06K, M51G, K53A, D54A, S55A, T63A) (human) (UniProt Q14116)
Sequence of IL-18 polypeptide of SEQ ID NO: 35 (Y01G, F02A, E06K, M51G, K53A, D54A, S55A, T63A) (human) (Q14116 37-193 Y37G/F38A/E42K/M87G/K89A/D90A/S91A/T99A): as the sequence (Q14116 37-193 V47I/C74A/K89A/S91A/C112A/C163A) above, with Y1G, F2A, E6K, I11V, A38C, M51G, D54A, T63A, A76C, A127C counted along it

[24] = target: IL-18 polypeptide C143 (V11I, C38A, K53A, C76A, C127A) (human) (UniProt Q14116)
Sequence of IL-18 polypeptide C143 (V11I, C38A, K53A, C76A, C127A) (human) (Q14116 37-193 V47I/C74A/K89A/C112A/C163A): as the sequence (Q14116 37-193 V47I/C74A/K89A/S91A/C112A/C163A) above, with A55S counted along it

[25] = target: IL-18 polypeptide of SEQ ID NO: 50 (E06K, K53A, T63A) (human) (UniProt Q14116)
Sequence of IL-18 polypeptide of SEQ ID NO: 50 (E06K, K53A, T63A) (human) (Q14116 37-193 E42K/K89A/T99A): as the sequence (Q14116 37-193 V47I/C74A/K89A/S91A/C112A/C163A) above, with E6K, I11V, A38C, A55S, T63A, A76C, A127C counted along it

[26] = target: IL-18 polypeptide of SEQ ID NO: 38 (E06K) (human) (UniProt Q14116)
Sequence of IL-18 polypeptide of SEQ ID NO: 38 (E06K) (human) (Q14116 37-193 E42K): as the sequence (Q14116 37-193 V47I/C74A/K89A/S91A/C112A/C163A) above, with E6K, I11V, A38C, A53K, A55S, A76C, A127C counted along it

[27] = target: IL-18 polypeptide of SEQ ID NO: 30 (E6K, V11I, C38A, K53A, T63A, C76A, C127A) (human) (UniProt Q14116)
Sequence of IL-18 polypeptide of SEQ ID NO: 30 (E6K, V11I, C38A, K53A, T63A, C76A, C127A) (human) (Q14116 other isoform, or with tags, fused parts or gaps with the stated changes): as the sequence (Q14116 37-193 V47I/C74A/K89A/S91A/C112A/C163A) above, with E6K, A55S, T63A counted along it

Sequence of IL-18 polypeptide of SEQ ID NO: 36 (K53A) (human) (Q14116 37-193 K89A): as the sequence (Q14116 37-193 V47I/C74A/K89A/S91A/C112A/C163A) above, with I11V, A38C, A55S, A76C, A127C counted along it
Sequence of IL-18 polypeptide of SEQ ID NO: 6 (E6K, V11I, C38A, K53A, T63A, C68A, C76A, D98C, C127A) (human) (Q14116 other isoform, or with tags, fused parts or gaps with the stated changes): as the sequence (Q14116 37-193 V47I/C74A/K89A/S91A/C112A/C163A) above, with E6K, A55S, T63A, C68A, D98C counted along it
Sequence of IL-18 polypeptide C157 (V11I, C38A, K53A, C76A, C127A, D132A) (human) (Q14116 37-193 V47I/C74A/K89A/C112A/C163A/D168A): as the sequence (Q14116 37-193 V47I/C74A/K89A/S91A/C112A/C163A) above, with A55S, D132A counted along it
Sequence of IL-18 polypeptide C158 (V11I, C38A, K53A, C76A, G108A, C127A) (human) (Q14116 37-193 V47I/C74A/K89A/C112A/G144A/C163A): as the sequence (Q14116 37-193 V47I/C74A/K89A/S91A/C112A/C163A) above, with A55S, G108A counted along it

“Fc-fused human IL-18 binding protein isoform a (IL-18BPa) (from UniProt O95998 31-194) (Fc fusion)” was tested, and the IC50 of IL-18BPa inhibition of IFNγ induction in NK-92 cells [1] was 1.81 nM, the IC50 of IL-18BPa inhibition of IFNγ induction in NK-92 cells [2] was 27.3 nM and the IC50 of IL-18BPa inhibition of IFNγ induction in NK-92 cells [3] was 3.98 nM. The IC50 of IL-18BPa inhibition of IFNγ induction in NK-92 cells [4] was 5.85 nM, the IC50 of IL-18BPa inhibition of IFNγ induction in NK-92 cells [5] was 733 nM and the IC50 of IL-18BPa inhibition of IFNγ induction in NK-92 cells [6] was 18.2 nM. It also gave an IC50 of IL-18BPa inhibition of IFNγ induction in NK-92 cells [7] of 0.456 nM, an IC50 of IL-18BPa inhibition of IFNγ induction in NK-92 cells [8] of 780 nM and an IC50 of IL-18BPa inhibition of IFNγ induction in NK-92 cells [9] of 0.885 nM. The IC50 of IL-18BPa inhibition of IFNγ induction in NK-92 cells [10] was 0.681 nM, the IC50 of IL-18BPa inhibition of IFNγ induction in NK-92 cells [11] was 1.17 nM and the IC50 of IL-18BPa inhibition of IFNγ induction in NK-92 cells [12] was 4.46 nM. It also gave an IC50 of IL-18BPa inhibition of IFNγ induction in NK-92 cells [13] of 0.189 nM, an IC50 of IL-18BPa inhibition of IFNγ induction in NK-92 cells [14] of 0.44 nM and an IC50 of IL-18BPa inhibition of IFNγ induction in NK-92 cells [15] of 2.22 nM. For the same substance, the IC50 of IL-18BPa inhibition of IFNγ induction in NK-92 cells [16] was 0.176 nM, the IC50 of IL-18BPa inhibition of IFNγ induction in NK-92 cells [17] was 3.18 nM and the IC50 of IL-18BPa inhibition of IFNγ induction in NK-92 cells [18] was 15 nM. It also gave an IC50 of IL-18BPa inhibition of IFNγ induction in NK-92 cells [19] of 654 nM, an IC50 of IL-18BPa inhibition of IFNγ induction in NK-92 cells [20] of 0.444 nM and an IC50 of IL-18BPa inhibition of IFNγ induction in NK-92 cells [21] of 47.6 nM. For the same substance, the IC50 of IL-18BPa inhibition of IFNγ induction in NK-92 cells [22] was 0.239 nM, the IC50 of IL-18BPa inhibition of IFNγ induction in NK-92 cells [23] was > 55 nM and the IC50 of IL-18BPa inhibition of IFNγ induction in NK-92 cells [24] was 7.52 nM. The IC50 of IL-18BPa inhibition of IFNγ induction in NK-92 cells [25] was > 1000 nM, the IC50 of IL-18BPa inhibition of IFNγ induction in NK-92 cells [26] was 7.79 nM and the IC50 of IL-18BPa inhibition of IFNγ induction in NK-92 cells [27] was 284 nM.
